Measurements published in the supplement of paper PMC10126150.
± gives the standard deviation of the averaged measurements.

What follows are sequences tested on ATP (assay: switch fluorescence ratio, 500 uM ATP over buffer (Cy3 cluster intensity, sum of 5 cycles each) (fold (ratio)); higher = stronger signal-on switching upon ATP binding; sequences stand for … in TCGTCGGCAGCGTCAGATGTGTATAAGAGACAGTTTTTTTTTTTTTTTTTTTTTTTTT…TC). Conditions: aptamer strand: ATP DNA aptamer (quencher-CACCTGGGGGAGTATTGCGGAGGAAGG + anchor), 100 nM annealed; ATP concentration: 500 uM.
How it was run: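 Imaging in selection buffer was followed by imaging after 15 min with 500 uM ATP at 22 °C, for Cy3-labelled switching-strand clusters annealed to 100 nM quencher-labelled ATP aptamer on a modified Illumina MiSeq flow-cell. Five of these buffer/ATP cycles ran, separated by NaOH stripping and re-annealing. The fluorescence ratio per cluster is summed target-cycle over summed buffer-cycle Cy3 intensity, averaged per switch-domain sequence; clusters outside 100-1000 RFU were removed.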
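Further: ATP exposure 15 min at 22 °C before imaging.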

| Sequence | switch fluorescence ratio |
| --- | --- |
| CAAGGATTTT | 0.9929 ± 0.0012 |
| CAAGGCTACG | 1.06 ± 0.04 |
| CAAGGGAAGT | 0.978 ± 0.017 |
| CAAGGGATTT | 0.982 ± 0.036 |
| CAAGGGGCAG | 1.009 ± 0.0057 |
| CAAGGGGCGT | 1.01 ± 0.035 |
| CAAGGGGGCG | 0.994 ± 0.048 |
| CAAGGGGGGA | 1.01 ± 0.023 |
| CAAGGGGGTT | 1.02 ± 0.05 |
| CAAGGGTTGC | 0.987 ± 0.056 |
| CAAGGTATTG | 0.987 ± 0.017 |
| CAAGGTGGGG | 1.03 ± 0.0038 |
| CAAGGTGTGT | 1.01 ± 0.043 |
| CAAGGTTGAA | 0.9902 ± 0.0079 |
| CAAGTAATTG | 1.025 ± 0.0088 |
| CAAGTGAGGG | 1.04 ± 0.015 |
| CAAGTGCAGA | 1.052 ± 0.0078 |
| CAAGTTATAA | 0.994 ± 0.023 |
| CAAGTTGATG | 0.982 ± 0.057 |
| CAATAACTGG | 1.01 ± 0.015 |
| CAATACCTAT | 1.05 ± 0.022 |
| CAATACGGGG | 1.13 ± 0.085 |
| CAATACTACT | 1.361 ± 0.01 |
| CAATAGTTGG | 0.993 ± 0.01 |
| CAATATGCCG | 0.968 ± 0.026 |

| Sequence | switch fluorescence ratio |
| --- | --- |
| CAATATGTGT | 0.986 ± 0.036 |
| CAATATGTTG | 1.02 ± 0.035 |
| CAATATTACA | 1.05 ± 0.016 |
| CAATCATGTC | 1.04 ± 0.05 |
| CAATCCTATC | 1.02 ± 0.034 |
| CAATCGTAAA | 1.01 ± 0.02 |
| CAATGACACT | 1.04 ± 0.044 |
| CAATGAGAGA | 0.9792 ± 0.0083 |
| CAATGCAGCA | 0.976 ± 0.021 |
| CAATGCAGGG | 1.03 ± 0.014 |
| CAATGCGGAG | 1 ± 0.015 |
| CAATGGACGT | 0.99 ± 0.029 |
| CAATGGGATA | 1.02 ± 0.032 |
| CAATGGGGGT | 1 ± 0.038 |
| CAATGGGTAG | 0.9989 ± 0.0018 |
| CAATGTCACC | 1.06 ± 0.019 |
| CAATGTGGGT | 0.986 ± 0.0086 |
| CAATGTGTCG | 1.07 ± 0.055 |
| CAATGTGTCT | 1 ± 0.033 |
| CAATGTTAGA | 1 ± 0.014 |
| CAATGTTCGA | 0.981 ± 0.01 |
| CAATTACTTT | 1.06 ± 0.026 |
| CAATTATTCG | 1.04 ± 0.052 |
| CAATTCACCG | 1.04 ± 0.022 |
| CAATTCAGGA | 1.01 ± 0.036 |

| Sequence | switch fluorescence ratio |
| --- | --- |
| CAATTGGGTT | 0.985 ± 0.025 |
| CAATTTGTCT | 1.01 ± 0.028 |
| CAATTTGTGC | 1.02 ± 0.1 |
| CACAAAATAG | 1.45 ± 0.49 |
| CACAGTTTGC | 1.02 ± 0.026 |
| CACATATTCC | 1.14 ± 0.035 |
| CACATTATTC | 1.04 ± 0.033 |
| CACATTTAGG | 0.978 ± 0.032 |
| CACATTTGGA | 0.985 ± 0.051 |
| CACCAATAGC | 1.31 ± 0.059 |
| CACCACGTGG | 1.01 ± 0.018 |
| CACCAGTCAA | 1.56 ± 0.33 |
| CACCATTAGT | 0.9802 ± 0.0079 |
| CACCCTGGTG | 4.51 ± 0.57 |
| CACCGACTTT | 1.06 ± 0.0014 |
| CACCGTGGTC | 1.14 ± 0.023 |
| CACCGTTTTC | 1.1 ± 0.028 |
| CACCTACATG | 1.21 ± 0.031 |
| CACCTCAGAT | 1.05 ± 0.023 |
| CACCTTACTT | 1.26 ± 0.062 |
| CACGCATTTT | 1.12 ± 0.089 |
| CACGGAAGCA | 1.07 ± 0.019 |
| CACGGAGCAG | 2.52 ± 0.15 |
| CACGGATAAA | 1.04 ± 0.022 |
| CACGGATGGT | 1.01 ± 0.069 |

| Sequence | switch fluorescence ratio |
| --- | --- |
| CACGGCAAGA | 1.89 ± 0.087 |
| CACGGCCCAA | 0.9224 ± 0.0023 |
| CACGGGGTTT | 0.954 ± 0.011 |
| CACGGTATTT | 1.19 ± 0.067 |
| CACGTCTGAA | 0.996 ± 0.047 |
| CACGTTCAGC | 1.04 ± 0.035 |
| CACGTTGCCT | 0.979 ± 0.052 |
| CACGTTGTTT | 0.9963 ± 0.0019 |
| CACGTTTCCT | 1.1 ± 0.067 |
| CACTAACCAT | 1.09 ± 0.069 |
| CACTAAGTGG | 1.025 ± 0.0023 |
| CACTCTCAGC | 1.04 ± 0.012 |
| CACTCTGTGT | 1.02 ± 0.026 |
| CACTGACTTA | 1.19 ± 0.032 |
| CACTGCTCCT | 1.09 ± 0.013 |
| CACTGGGGAT | 0.981 ± 0.046 |
| CACTGGGGTG | 1.04 ± 0.038 |
| CACTGTAACC | 1.19 ± 0.072 |
| CACTGTGAAT | 1.009 ± 0.0024 |
| CACTTTTTTA | 0.962 ± 0.039 |
| CAGAAATTAG | 1.005 ± 0.0024 |
| CAGAACTCTT | 0.963 ± 0.034 |
| CAGAAGCCTG | 1.014 ± 0.0028 |
| CAGAAGGGAG | 0.98 ± 0.01 |
| CAGAAGGGCG | 1 ± 0.036 |
